Legend:
[1] = target: T1, Pantoea dispersa 68J sucrose isomerase (SI), mature, SEQ ID NO: 10, carboxy-terminal 6×His tag (SEQ ID NO: 52) (Pantoea dispersa, UniProt Q6XNK6); assay: Sucrose isomerase kinetics, purified SI from P. dispersa 68J (isomaltulose production), with or without glucose/fructose; assay type: biochemical; details: sucrose, isomaltulose production
T1 sequence (Q6XNK6 34-598): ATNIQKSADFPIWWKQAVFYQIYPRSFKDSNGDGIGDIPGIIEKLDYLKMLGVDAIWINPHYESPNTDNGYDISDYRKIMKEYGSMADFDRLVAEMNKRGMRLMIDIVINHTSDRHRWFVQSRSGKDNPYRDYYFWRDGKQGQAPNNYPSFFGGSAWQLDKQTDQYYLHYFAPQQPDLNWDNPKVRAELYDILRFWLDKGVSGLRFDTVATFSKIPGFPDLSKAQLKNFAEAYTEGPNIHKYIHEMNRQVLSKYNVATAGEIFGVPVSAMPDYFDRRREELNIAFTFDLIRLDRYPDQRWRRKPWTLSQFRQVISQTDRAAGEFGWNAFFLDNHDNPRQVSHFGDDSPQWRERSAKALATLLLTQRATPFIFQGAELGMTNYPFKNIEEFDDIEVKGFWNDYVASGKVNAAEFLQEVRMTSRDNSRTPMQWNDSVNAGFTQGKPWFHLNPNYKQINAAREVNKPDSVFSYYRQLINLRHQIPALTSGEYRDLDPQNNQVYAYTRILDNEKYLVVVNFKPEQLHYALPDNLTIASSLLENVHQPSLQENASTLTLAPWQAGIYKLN
Experimental: (§1) The pET24b vector introduces a carboxy-terminal 6×His tag (SEQ ID NO: 52) on expressed proteins, which were purified by adsorption to Ni-NTA agarose (Qiagen) and elution with 25 mM NaH2PO4, 150 mM NaCl, 125 mM imidazole buffer (pH8.0) following the manufacturer's instructions. For storage, the eluted solution was diluted with 50% glycerol. The purity of SI proteins was tested by SDS-PAGE as described below. A batch procedure using Ni-NTA agarose in suspension yielded predominantly (80-95%) SI with a background of several other protein bands. A procedure using Ni-NTA agarose in adsorption columns yielded preparations containing a single protein band. Unless otherwise specified, this is the form of the purified SI enzymes used for biochemical characterisation.
(§2) Enzyme activities were measured by incubating 5 μl of purified enzyme with 95 μL of sucrose solution at a final concentration of 584 mM in 0.1 M citrate/phosphate buffer (pH 6.0) at 30° C. Sugar profiles in the reaction mix were analysed at intervals by CE as described previously. One unit (U) of SI activity was defined as the amount of enzyme that could release 1 μmol of isomaltulose in one minute at the initial stage of the reaction.
(§3) SI activity was measured by incubating the purified enzyme with different sucrose concentrations (3, 6, 15, 58, 146, 292, 584, 877, 1169 and 1461 mM) under standard assay conditions, and also with addition of glucose, fructose or both to a final concentration of 277 mM. Data were analyzed according to the method of Lineweaver and Burk (Voet and Voet, 1995) to calculate Km and Vmax values.

[2] = system: Klebsiella sp. sucrose isomerase; details: isomaltulose product; Park et al. 1996; cited from earlier work
[3] = system: Pseudomonas mesoacidophila MX-45 sucrose isomerase; details: trehalulose product; Nagai et al. 1994; cited from earlier work
[4] = target: T2, Klebsiella sp. 14S sucrose isomerase (SI), carboxy-terminal 6×His tag (SEQ ID NO: 52) (Klebsiella planticola, UniProt Q6XKX6); assay: Sucrose isomerase kinetics, purified SI from Klebsiella sp. 14S (isomaltulose production), with or without glucose/fructose; assay type: biochemical; details: sucrose, isomaltulose production, pH 6.0, 30° C., Lineweaver and Burk
T2 sequence (Q6XKX6 29-598): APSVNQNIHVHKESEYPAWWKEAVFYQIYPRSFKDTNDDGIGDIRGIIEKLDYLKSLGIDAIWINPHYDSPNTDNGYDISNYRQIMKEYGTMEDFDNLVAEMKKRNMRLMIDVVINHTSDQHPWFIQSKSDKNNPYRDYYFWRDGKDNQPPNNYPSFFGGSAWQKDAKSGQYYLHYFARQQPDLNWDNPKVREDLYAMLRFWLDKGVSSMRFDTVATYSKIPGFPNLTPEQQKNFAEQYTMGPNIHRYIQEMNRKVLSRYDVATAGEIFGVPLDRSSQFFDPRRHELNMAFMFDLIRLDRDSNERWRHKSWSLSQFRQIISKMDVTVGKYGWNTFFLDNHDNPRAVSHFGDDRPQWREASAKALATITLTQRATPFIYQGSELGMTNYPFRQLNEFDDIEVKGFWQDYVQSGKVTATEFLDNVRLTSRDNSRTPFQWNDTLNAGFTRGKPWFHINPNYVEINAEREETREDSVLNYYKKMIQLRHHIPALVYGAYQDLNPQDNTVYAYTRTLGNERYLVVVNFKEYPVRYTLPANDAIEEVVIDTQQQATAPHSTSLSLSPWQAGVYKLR
Experimental: as §1, with “Unless otherwise specified, this is the form of the purified SI enzymes used for biochemical characterisation.” left out
Enzyme activities were measured by incubating 5 μl of purified enzyme with 95 μL of sucrose solution at a final concentration of 584 mM in 0.1 M citrate/phosphate buffer (pH 6.0) at 30° C. Sugar profiles in the reaction mix were analysed at intervals by CE as described previously. […]
as §3

[5] = system: Serratia plymuthica ATCC 15928 sucrose isomerase; details: isomaltulose product; Véronèse & Perlot 1999; cited from earlier work
[6] = system: Klebsiella sp. LX3 sucrose isomerase; details: isomaltulose product; Zhang et al. 2002; cited from earlier work
[7] = Assay of isolated (purified) SI enzyme activity; assay type: biochemical
Experimental: as §1, §2
The enzymes were incubated with sucrose at different pH ranging from 2.0 to 10.6. The solution of pH 2.0 was buffered in 0.2 M KCl; pH 3.0 to pH 9.0 were in 0.1 M citrate/phosphate buffer; pH 10.0 to pH 10.6 were in 0.2 M glycine buffer. The effect of temperature from 10° C. to 70° C. was measured at pH 6.0. […]

[8] = Storage stability of purified SI proteins; assay type: physicochemical
Experimental: The purified fresh enzymes from SDS-PAGE had specific activities for isomaltulose production of: E. rhapontici: 35 U mg^−1 protein, Klebsiella sp.: 95 U mg^−1 protein and P. dispersa: 632 U mg^−1 protein. The purified SI from E. rhapontici lost function during overnight storage at −20° C. in elution buffer diluted with 50% glycerol. In contrast, the purified enzymes from 14S or P. dispersa retained 100% of the fresh enzyme efficiency for isomaltulose production after 6-month storage at −20° C., or 60% after 15-day storage at room temperature in the same buffer. Because of instability, the E. rhapontici SI was not characterised further in purified form. Cheetham et al., (1984) found substantial differences between E. rhapontici strains for SI stability in immobilized cells, and the enzyme from strain NCPPB 1578 was stable in purified form (Cheetham, 1984).
as §1

[9] = Conversion of sucrose into isomaltulose by E. coli cells expressing cloned SI genes; assay type: cell-based
Experimental: The three sucrose isomerase genes in the pCR®2.1 vector were cut and cloned into pGEM®-3Zf(+) then into pET 24b vector (Novagen) for expression in E. coli BL21(DE3) strain. Five mL LB medium with 50 μg/mL kanamycin was used for the BL21(DE3) cell culture. Fifteen cultures per construct were set up initially. Cells were grown at 37° C. at 225 rpm shaking. Six to ten cultures per construct, with OD600 1.000±0.005, were selected for further induction. After 0.5 mL was sampled from each culture, IPTG was added to the culture to a final concentration of 1.0 mM. Incubation of the cultures was continued for another 3 hours. The induced cultures only with OD600 1.750±0.005 were further selected for sucrose conversion analysis and protein measurement, allowing analysis of three replicate cultures per construct. From each of the selected IPTG-induced cultures, 1.5 mL was sampled for protein quantification, 0.5 mL for protein SDS-PAGE, 1.0 mL for quantification of conversion efficiency from sucrose into isomaltulose.
The 1.0 mL culture was centrifuged, then resuspended in citrate/phosphate (pH 6.0) buffered 50% sucrose solution and assayed for isomaltulose conversion by CE analysis as described above. Conversion ratio was calculated by sucrose peak area and isomaltulose peak area normalised against standards of known concentration, using the software of Beckman P/ACE 5000 Series C.E. System.
Fifteen cultures per construct were set up in 5 mL LB medium (Sambrook and Russell, 2001) with 50 μg/mL kanamycin in a 30 mL universal tube. Cells were grown at 37° C. at 225 rpm shaking. Six to ten cultures per construct, with OD600=1.00 were selected for further induction. After 0.5 mL was sampled from each culture, IPTG was added to a final concentration of 0.5 mM and incubation of the cultures was continued for another 3 h at 28° C. This allowed selection of three replicate cultures per construct with the same OD600 for sucrose conversion analysis and protein measurement. From each of the selected cultures, 1.5 mL was sampled for protein quantification, 0.5 mL for protein SDS-PAGE, and 1.0 mL for quantification of conversion efficiency from sucrose into isomaltulose. For SI protein purification experiment, the culture volume was scaled up to 25 mL in a 250 mL flask.
The 1.0 mL culture sample was centrifuged at 12,000×g for 1 min, then resuspended in 5 mL of 0.1 M citrate/phosphate (pH 6.0) buffered 50% sucrose solution and incubated for 4 h at 37° C. with 225 rpm shaking. Conversion ratio was calculated from sucrose and isomaltulose peak areas normalised against standards of known concentration, using a Beckman P/ACE 5000 CE as described previously herein.

[10] = Isomaltulase activity of the purified enzyme; assay type: biochemical; details: 50 mM isomaltulose, 30° C., 30 minutes, pH 3.0 to 7.0
Experimental: (§4) Isomaltulase activity of the purified enzyme was investigated by incubation with 50 mM isomaltulose at 30° C. for 30 minutes at each of pH 3.0, 4.0, 5.0, 6.0 and 7.0. Glucose and fructose were tested as substrates under the same reaction conditions.

[11] = Glucose and fructose tested as substrates of the purified enzyme; assay type: biochemical; details: 30° C., 30 minutes, pH 3.0 to 7.0
Experimental: as §4

[12] = E. coli, pET 24b, same expression conditions

OC[C@H]1O[C@@](CO)(O[C@H]2O[C@H](CO)[C@@H](O)[C@H](O)[C@H]2O)[C@@H](O)[C@@H]1O [sucrose, α-D-glucosyl-1,2-D-fructose]
Vmax [1]: 637 μmoles isomaltulose/mg protein/min
Vmax ([1]; pH 6.0, 30° C., Lineweaver and Burk): 637 U mg^−1
Vmax [2]: 110 U mg^−1
Km [3]: 19.2 mM
Vmax [4]: 100 U mg^−1
Km [5]: 65 mM
Vmax [5]: 120 U mg^−1
Km [6]: 54.6 mM

B1: P. dispersa SI: sucrose isomerase cloned from bacterial isolate 68J, SEQ ID NO: 8, mature polypeptide SEQ ID NO: 10 (protein)
chain: MFLNGFKTVIALTMASSFYLAASPLTKPSTPIAATNIQKSADFPIWWKQAVFYQIYPRSFKDSNGDGIGDIPGIIEKLDYLKMLGVDAIWINPHYESPNTDNGYDISDYRKIMKEYGSMADFDRLVAEMNKRGMRLMIDIVINHTSDRHRWFVQSRSGKDNPYRDYYFWRDGKQGQAPNNYPSFFGGSAWQLDKQTDQYYLHYFAPQQPDLNWDNPKVRAELYDILRFWLDKGVSGLRFDTVATFSKIPGFPDLSKAQLKNFAEAYTEGPNIHKYIHEMNRQVLSKYNVATAGEIFGVPVSAMPDYFDRRREELNIAFTFDLIRLDRYPDQRWRRKPWTLSQFRQVISQTDRAAGEFGWNAFFLDNHDNPRQVSHFGDDSPQWRERSAKALATLLLTQRATPFIFQGAELGMTNYPFKNIEEFDDIEVKGFWNDYVASGKVNAAEFLQEVRMTSRDNSRTPMQWNDSVNAGFTQGKPWFHLNPNYKQINAARXVNKPDSVFSYYRQLINLRHQIPALTSGEYRDLDPQNNQVYAYTRILDNEKYLVVVNFKPEQLHYALPDNLTIASSLLENVHQPSLQENASTLTLAPWQAGIYKLN
modifications: not fully specified; X: residue not identified in the source
monosaccharides, share of the products ([7]; from pH 4 to 8): less than 20%
activity at 10° C., of activity at optimal temperature ([7]; purified SI): 15%
activity at 60° C. ([7]; purified SI): still active
isomaltulose production at pH 3 and pH 8 ([7]; purified SI): some isomaltulose was still produced
optimal pH for isomaltulose production ([7]; purified SI): 5
time until all sucrose was converted ([7]; purified SI): ≤ 45 min
sucrose converted to isomaltulose (of consumed sucrose) ([7]; purified SI, complete conversion, remainder glucose and fructose): 91%
optimal temperature for isomaltulose production ([7]; purified SI, pH 6.0): 37 °C
specific activity for isomaltulose production ([7]; purified fresh His-tagged enzymes): 632 U mg^−1 protein
fresh enzyme efficiency for isomaltulose production retained ([8]; 6-month storage at −20° C., elution buffer with 50% glycerol): 100%
fresh enzyme efficiency for isomaltulose production retained ([8]; 15-day storage at room temperature, same buffer): 60%
conversion efficiency from sucrose to isomaltulose, times that of the 14S (Klebsiella sp.) gene product/clone [9, 12]: 18 times
conversion efficiency from sucrose to isomaltulose, times that of the Erwinia rhapontici gene product/clone [9, 12]: 10 times
proportions of glucose and fructose generated ([9]; compared with 14S (Klebsiella sp.) and Erwinia rhapontici SIs): smaller proportions of glucose and fructose
efficiency of the soluble enzyme, times that of the Erwinia and Klebsiella enzymes ([9]; intact cell assay, estimated): 6-38 times
hydrolysis of isomaltulose [10]: did not hydrolyse isomaltulose
product from glucose and fructose as substrates [11]: no product was detected
